Experiments:
Assay in all cases: Kinase Profiling Assay
Assay type in all cases: biochemical
Conditions in all cases: 100 μM peptide
EGFR(L861Q)(h) = EGFR(L861Q)(h) (Homo sapiens, UniProt P00533, L861Q)
Procedure, shortened: (§1)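 Each kinase in a 266-member human panel is assayed, in duplicate, for activity in the presence of MK2 inhibitory peptides to gauge specificity.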

Pyk2(h) = biological target: T1, Pyk2(h) (Homo sapiens, UniProt Q14289)
T1 construct: purchased Millipore (IC50 Profiler Express service)
Procedure, shortened: as §1

PASK(h) = PASK(h) (Homo sapiens, UniProt Q96RG2)
Procedure, shortened: as §1

cKit(h) = cKit(h) (Homo sapiens, UniProt P10721)
Procedure, shortened: as §1

TAO1(h) = biological target: T2, TAO1(h) (Homo sapiens, UniProt Q7L7X3)
T2 sequence (Q7L7X3 1-1001): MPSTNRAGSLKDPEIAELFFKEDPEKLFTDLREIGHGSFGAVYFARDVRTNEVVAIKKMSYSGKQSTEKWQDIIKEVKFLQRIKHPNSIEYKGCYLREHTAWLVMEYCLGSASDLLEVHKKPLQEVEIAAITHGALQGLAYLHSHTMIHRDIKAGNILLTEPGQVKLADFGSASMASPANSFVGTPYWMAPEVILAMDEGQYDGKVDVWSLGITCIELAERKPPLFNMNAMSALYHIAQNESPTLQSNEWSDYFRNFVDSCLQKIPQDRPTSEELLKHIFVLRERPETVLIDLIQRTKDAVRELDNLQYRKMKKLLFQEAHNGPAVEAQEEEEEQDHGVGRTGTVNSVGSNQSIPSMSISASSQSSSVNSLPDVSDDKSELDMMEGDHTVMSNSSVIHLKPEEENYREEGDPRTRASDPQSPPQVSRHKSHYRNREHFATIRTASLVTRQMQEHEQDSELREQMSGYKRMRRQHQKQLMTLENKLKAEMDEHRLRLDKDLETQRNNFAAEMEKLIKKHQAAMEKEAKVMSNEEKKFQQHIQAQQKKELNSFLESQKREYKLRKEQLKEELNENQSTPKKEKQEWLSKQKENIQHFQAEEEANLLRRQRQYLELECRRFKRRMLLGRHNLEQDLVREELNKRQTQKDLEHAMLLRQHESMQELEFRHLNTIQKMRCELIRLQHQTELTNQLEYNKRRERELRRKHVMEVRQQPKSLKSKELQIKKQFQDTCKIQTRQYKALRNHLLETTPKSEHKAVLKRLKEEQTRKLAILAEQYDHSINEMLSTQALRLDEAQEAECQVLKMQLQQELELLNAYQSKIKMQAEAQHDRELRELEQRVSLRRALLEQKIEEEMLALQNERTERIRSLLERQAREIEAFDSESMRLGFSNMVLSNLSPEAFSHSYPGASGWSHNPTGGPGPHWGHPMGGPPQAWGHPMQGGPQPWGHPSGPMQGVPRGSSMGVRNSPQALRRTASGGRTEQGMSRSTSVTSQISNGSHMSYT
Procedure, shortened: as §1

TSSK1(h) = biological target: T3, TSSK1(h) (Homo sapiens, UniProt Q9BXA7)
T3 sequence (Q9BXA7 1-367): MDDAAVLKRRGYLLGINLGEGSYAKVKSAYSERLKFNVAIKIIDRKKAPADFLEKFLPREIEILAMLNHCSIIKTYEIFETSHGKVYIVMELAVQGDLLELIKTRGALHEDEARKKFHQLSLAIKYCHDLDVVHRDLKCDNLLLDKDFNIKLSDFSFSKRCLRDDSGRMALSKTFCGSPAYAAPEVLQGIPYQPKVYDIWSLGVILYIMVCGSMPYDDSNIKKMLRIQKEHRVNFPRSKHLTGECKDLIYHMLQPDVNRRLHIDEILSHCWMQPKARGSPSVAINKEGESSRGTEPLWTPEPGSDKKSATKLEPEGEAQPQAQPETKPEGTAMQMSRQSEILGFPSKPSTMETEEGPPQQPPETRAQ
Procedure, shortened: as §1

EphA3(h) = biological target: T4, EphA3(h) (Homo sapiens, UniProt P29320)
T4 sequence (P29320 21-983): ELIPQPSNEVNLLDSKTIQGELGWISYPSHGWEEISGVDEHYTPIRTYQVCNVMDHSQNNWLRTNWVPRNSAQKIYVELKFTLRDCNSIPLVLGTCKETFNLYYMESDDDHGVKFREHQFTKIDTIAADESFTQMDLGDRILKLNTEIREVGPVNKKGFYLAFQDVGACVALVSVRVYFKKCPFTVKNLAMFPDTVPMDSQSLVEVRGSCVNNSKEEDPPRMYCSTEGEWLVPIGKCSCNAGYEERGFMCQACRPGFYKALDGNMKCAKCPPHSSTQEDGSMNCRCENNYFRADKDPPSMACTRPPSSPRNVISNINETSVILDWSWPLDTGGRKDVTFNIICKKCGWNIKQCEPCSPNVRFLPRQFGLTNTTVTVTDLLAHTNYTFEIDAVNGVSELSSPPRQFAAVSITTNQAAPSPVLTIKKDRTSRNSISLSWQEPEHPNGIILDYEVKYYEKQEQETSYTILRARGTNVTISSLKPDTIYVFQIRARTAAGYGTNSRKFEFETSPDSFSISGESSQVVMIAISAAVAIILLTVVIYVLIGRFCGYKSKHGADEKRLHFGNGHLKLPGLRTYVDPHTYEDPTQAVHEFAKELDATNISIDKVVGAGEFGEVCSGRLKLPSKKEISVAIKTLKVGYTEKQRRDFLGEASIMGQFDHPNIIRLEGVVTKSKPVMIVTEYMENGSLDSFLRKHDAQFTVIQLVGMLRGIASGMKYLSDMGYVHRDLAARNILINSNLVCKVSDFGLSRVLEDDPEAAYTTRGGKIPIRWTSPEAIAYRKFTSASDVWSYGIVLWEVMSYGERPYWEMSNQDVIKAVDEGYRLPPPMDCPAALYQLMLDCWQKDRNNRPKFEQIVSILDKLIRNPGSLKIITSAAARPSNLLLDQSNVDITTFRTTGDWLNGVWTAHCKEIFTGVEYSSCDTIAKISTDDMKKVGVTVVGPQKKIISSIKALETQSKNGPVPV
Procedure, shortened: as §1

HIPK2(h) = biological target: T5, HIPK2(h) (Homo sapiens, UniProt Q9H2X6)
T5 construct: purchased Millipore
Procedure, shortened: as §1

WNK2(h) = WNK2(h) (Homo sapiens, UniProt Q9Y3S1)
Procedure, shortened: as §1

NEK7(h) = NEK7(h) (Homo sapiens, UniProt Q8TDX7)
Procedure, shortened: as §1

Rsk3(h) = Rsk3(h) (Homo sapiens, UniProt Q15349)
Procedure, shortened: as §1

T5 sequence (Q9H2X6 whole entry): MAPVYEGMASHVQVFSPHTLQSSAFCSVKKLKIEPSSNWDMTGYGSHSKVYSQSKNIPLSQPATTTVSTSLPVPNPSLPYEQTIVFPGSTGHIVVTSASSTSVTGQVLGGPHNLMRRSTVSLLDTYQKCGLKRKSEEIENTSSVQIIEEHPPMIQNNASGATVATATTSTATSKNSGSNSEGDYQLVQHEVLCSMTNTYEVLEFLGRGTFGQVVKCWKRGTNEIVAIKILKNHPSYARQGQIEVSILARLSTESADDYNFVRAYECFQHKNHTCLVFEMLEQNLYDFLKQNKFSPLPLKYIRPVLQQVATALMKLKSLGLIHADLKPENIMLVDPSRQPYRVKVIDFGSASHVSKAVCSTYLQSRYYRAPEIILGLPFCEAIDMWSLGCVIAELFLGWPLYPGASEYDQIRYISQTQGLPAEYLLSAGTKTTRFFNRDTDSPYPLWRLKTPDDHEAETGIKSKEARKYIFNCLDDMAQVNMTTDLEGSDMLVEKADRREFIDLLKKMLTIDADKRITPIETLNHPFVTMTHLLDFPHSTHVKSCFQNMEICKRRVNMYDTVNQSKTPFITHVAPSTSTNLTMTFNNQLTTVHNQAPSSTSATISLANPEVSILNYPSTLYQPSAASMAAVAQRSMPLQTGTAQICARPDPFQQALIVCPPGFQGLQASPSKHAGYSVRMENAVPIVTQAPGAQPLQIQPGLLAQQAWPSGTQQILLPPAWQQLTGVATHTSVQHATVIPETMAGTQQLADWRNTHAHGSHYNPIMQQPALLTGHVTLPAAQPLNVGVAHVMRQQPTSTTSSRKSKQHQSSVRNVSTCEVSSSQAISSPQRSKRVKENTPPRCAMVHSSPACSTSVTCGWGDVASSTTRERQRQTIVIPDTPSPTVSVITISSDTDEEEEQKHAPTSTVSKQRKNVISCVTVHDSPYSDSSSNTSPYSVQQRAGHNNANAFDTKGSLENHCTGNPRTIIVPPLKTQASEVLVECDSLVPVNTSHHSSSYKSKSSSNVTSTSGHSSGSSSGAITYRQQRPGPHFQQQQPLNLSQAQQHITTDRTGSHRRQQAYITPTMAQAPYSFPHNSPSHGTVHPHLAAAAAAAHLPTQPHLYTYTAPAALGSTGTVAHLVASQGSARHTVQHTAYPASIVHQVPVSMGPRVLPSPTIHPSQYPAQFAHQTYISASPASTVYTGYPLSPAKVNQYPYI
Chain of Rsk3(h) (Q15349 whole entry): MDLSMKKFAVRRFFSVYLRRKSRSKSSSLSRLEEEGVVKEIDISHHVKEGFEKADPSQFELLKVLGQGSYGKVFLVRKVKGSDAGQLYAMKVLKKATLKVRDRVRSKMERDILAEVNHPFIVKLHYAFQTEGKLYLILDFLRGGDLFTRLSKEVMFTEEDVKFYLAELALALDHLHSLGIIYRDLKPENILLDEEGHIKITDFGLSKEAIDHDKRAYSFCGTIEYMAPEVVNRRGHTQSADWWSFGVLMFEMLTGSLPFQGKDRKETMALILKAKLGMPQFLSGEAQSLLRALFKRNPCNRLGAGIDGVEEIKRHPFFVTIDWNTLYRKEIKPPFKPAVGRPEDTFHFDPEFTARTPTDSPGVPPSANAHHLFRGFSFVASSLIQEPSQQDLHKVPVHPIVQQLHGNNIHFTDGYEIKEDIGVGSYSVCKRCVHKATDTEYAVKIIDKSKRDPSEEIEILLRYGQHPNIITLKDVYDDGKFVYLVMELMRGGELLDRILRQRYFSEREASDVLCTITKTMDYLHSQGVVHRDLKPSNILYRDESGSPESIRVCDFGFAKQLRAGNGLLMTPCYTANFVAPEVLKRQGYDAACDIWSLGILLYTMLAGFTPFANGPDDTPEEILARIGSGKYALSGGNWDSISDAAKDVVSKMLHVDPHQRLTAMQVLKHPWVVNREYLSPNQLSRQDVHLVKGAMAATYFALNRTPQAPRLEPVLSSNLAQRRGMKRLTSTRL
Chain of WNK2(h) (Q9Y3S1 whole entry): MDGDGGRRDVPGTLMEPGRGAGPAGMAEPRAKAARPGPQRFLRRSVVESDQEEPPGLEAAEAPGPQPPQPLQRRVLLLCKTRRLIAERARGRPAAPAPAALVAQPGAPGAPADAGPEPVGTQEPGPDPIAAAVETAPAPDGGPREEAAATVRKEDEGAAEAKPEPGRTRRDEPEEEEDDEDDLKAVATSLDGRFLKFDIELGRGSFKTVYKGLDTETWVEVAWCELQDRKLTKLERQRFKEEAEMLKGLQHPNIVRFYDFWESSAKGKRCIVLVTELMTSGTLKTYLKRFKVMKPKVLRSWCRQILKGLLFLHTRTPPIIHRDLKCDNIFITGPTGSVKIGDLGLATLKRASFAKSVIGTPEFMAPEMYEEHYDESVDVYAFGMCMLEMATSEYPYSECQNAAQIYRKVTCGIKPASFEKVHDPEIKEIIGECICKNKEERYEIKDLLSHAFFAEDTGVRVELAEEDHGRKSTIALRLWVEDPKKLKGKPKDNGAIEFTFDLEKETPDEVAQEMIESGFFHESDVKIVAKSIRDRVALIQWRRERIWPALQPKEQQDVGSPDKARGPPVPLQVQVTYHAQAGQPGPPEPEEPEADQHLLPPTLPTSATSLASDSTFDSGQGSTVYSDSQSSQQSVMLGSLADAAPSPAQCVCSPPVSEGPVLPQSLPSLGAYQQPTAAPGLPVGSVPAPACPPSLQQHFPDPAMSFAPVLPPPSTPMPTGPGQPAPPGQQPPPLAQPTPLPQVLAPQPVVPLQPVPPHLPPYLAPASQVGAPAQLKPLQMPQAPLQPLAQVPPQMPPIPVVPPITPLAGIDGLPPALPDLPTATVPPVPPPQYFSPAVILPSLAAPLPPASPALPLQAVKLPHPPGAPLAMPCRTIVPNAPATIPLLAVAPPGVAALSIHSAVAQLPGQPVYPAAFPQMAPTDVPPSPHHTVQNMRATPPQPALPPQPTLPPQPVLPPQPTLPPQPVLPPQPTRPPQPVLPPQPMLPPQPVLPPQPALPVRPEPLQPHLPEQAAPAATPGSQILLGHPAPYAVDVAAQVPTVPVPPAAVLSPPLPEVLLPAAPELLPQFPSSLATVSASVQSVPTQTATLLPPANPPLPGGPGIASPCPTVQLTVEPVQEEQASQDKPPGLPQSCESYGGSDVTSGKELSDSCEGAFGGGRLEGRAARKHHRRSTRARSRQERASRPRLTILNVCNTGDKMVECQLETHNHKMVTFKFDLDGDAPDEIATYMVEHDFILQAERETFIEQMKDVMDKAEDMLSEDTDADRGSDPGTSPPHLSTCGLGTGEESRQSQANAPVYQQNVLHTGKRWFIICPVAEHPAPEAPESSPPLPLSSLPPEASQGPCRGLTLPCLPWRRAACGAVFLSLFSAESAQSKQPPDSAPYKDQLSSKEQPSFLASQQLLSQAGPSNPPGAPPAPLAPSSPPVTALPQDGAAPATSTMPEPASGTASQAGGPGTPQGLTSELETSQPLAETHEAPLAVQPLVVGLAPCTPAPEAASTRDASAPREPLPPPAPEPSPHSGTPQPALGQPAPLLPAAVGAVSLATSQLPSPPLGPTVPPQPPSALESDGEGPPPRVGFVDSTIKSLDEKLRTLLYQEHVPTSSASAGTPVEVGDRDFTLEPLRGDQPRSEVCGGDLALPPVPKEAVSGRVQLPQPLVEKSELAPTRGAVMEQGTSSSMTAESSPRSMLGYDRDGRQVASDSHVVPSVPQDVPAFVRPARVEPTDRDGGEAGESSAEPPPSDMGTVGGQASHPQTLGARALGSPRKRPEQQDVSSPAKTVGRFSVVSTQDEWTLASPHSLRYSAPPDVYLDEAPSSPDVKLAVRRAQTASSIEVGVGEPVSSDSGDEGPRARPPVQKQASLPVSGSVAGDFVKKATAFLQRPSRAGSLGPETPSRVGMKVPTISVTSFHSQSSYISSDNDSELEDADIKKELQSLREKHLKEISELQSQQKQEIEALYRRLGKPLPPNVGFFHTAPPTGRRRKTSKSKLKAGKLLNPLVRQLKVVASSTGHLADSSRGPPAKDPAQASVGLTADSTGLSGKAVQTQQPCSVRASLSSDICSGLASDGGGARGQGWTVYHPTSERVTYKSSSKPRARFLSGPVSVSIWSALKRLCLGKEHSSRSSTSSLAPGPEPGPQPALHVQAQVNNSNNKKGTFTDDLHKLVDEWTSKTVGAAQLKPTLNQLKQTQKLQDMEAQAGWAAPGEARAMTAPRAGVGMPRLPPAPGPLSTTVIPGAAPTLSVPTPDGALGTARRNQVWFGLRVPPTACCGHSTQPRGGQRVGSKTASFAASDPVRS
Chain of NEK7(h) (Q8TDX7 whole entry): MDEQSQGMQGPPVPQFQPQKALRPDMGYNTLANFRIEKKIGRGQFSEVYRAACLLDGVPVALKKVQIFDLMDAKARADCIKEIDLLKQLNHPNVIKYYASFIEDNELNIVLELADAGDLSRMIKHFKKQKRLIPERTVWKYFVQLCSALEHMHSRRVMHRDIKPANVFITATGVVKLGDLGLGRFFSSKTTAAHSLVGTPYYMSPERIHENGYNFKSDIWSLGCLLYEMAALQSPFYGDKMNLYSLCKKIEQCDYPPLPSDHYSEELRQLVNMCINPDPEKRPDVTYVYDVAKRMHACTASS

| Sequence | EGFR(L861Q)(h) % activity (EGFR(L861Q)(h)) [%] | Pyk2(h) % activity (Pyk2(h)) [%] | PASK(h) % activity (PASK(h)) [%] | cKit(h) % activity (cKit(h)) [%] | TAO1(h) % activity (TAO1(h)) [%] | TSSK1(h) % activity (TSSK1(h)) [%] | EphA3(h) % activity (EphA3(h)) [%] | HIPK2(h) % activity (HIPK2(h)) [%] | WNK2(h) % activity (WNK2(h)) [%] | NEK7(h) % activity (NEK7(h)) [%] | Rsk3(h) % activity (Rsk3(h)) [%] |
| --- | --- | --- | --- | --- | --- | --- | --- | --- | --- | --- | --- |
| FAKLAARLYRKALARQLGVAA [MMI-0300] | 25 | 47 | 29 | 53 | 82 | 79 | 6 | 73 | 64 | 84 | 76 |
| HRRIKAWLKKIKALARQLGVAA (Mammalian) [MMI-0500] | 15 | 46 | 9 | 45 | 24 | 46 | 33 | 38 | 8 | 89 | 23 |
| KAFAKLAARLYRKALARQLGVAA [MMI-0400] | 22 | 34 | 28 | 43 | 73 | 79 | 12 | 90 | 54 | 87 | 71 |
| YARAAARQARAKALNRQLGVA (Mammalian) [MMI-0200] | 74 | 127 | 60 | 110 | – | 98 | – | – | 94 | 96 | – |
